Each block holds one molecule with its values, some of them ahead of it.
Columns and labels:
[1] = molecular target: hL1ORF1p-Δcons (non-conserved N-terminal portion of human L1ORF1p, GPHM1-E103) (human) (UniProt Q9UN81); assay: SEC-MALS; hL1ORF1p-Δcons at 5.2 mM, Superdex 75 (10/300 GL), gel filtration buffer; monomer to dimer
[2] = molecular target: the molecule itself; assay: SEC-MALS; Superdex 200 (10/300 GL), gel filtration buffer (10 mM HEPES pH 7.5, 300 mM NaCl, 1 mM DTT)

- stoichiometry N [1]: 2
Molecule: hL1ORF1p-Δcons (non-conserved N-terminal portion of human L1ORF1p, GPHM1-E103) (from UniProt Q9UN81 1-103) (domain or fragment)

B1: hL1ORF1p-cc (coiled coil domain of human L1ORF1p, GPHMS53-Y152) (domain or fragment)
chain: GPHMSELREDIQTKGKEVENFEKNLEECITRITNTEKCLKELMELKTKARELREECRSLRSRCDQLEERVSAAEDEINEIKREGKFREKRIKRNEQSLQEIWDY
notes: residues printed before S53 in the construct's description (GPHMS53-Y152); not from L1ORF1p; human LINE-1 ORF1 protein (L1ORF1p) of the L1.3 element, residues S53-Y152, amplified from a plasmid with the M121A/M125I/M128I triple mutation; The M of GPHM probably stands at position 52 in place of Y52 (the structure is described as residues 52-152); also called L1ORF1p coiled coil domain; coiled coil …
- stoichiometry N [2]: 3

B2: hL1ORF1p-ΔNTR (human L1ORF1p without the NTR, GPHMS53-M338) (domain or fragment)
chain: GPHMSELREDIQTKGKEVENFEKNLEECITRITNTEKCLKELMELKTKARELREECRSLRSRCDQLEERVSAAEDEINEIKREGKFREKRIKRNEQSLQEIWDYVKRPNLRLIGVPESDVENGTKLENTLQDIIQENFPNLARQANVQIQEIQRTPQRYSSRRATPRHIIVRFTKVEMKEKMLRAAREKGRVTLKGKPIRLTADLSAETLQARREWGPIFNILKEKNFQPRISYPAKLSFISEGEIKYFIDKQMLRDFVTTRPALKELLKEALNMERNNRYQPLQNHAKM
notes: residues printed before S53 in the construct's description (GPHMS53-M338); not from L1ORF1p; also called remainder of human L1ORF1p; truncated trimer; not shown: His6, N-terminal, cleaved
- stoichiometry N [2]: 3

From paper PMC5940361, “Human LINE-1 retrotransposition requires a metastable coiled coil and a positively charged N-terminus in L1ORF1p” (eLife, 2018)
